Key:
[1] = target: Human pancreatic trypsin (Athens Research & Technology, Inc) (human) (UniProt P07477); assay: cell-based or functional assay
[2] = target: trypsin (Examples 7 and 8, source not stated); assay: cell-based or functional assay

Substance: human UTI (human urine UTI) (from UniProt P02760 206-352)
- IC50 of trypsin inhibition (fluorogenic substrate, enzyme activity) [1]: 3 nM
- IC50 of inhibition of trypsin-induced IL-6 production in BEAS2B cells [2]: 0.4 µg/mL
